Data taken from publication PMC9486808.
Where two headings read alike, the source gives them in different places.

Legend:
Assay in all cases: fluorescence polarisation
[1] = target: L4-FAM: Cyclo(Ac-…)pa[…]-NH2
[2] = target: S5-FAM: Cyclo(Ac-y…)pa[…]-NH2
[3] = target: S3-FAM: Cyclo(Ac-y…)pa[…]-NH2
[4] = target: L2-FAM: Cyclo(Ac-…)LFAApa[…]-NH2
[5] = target: L4-FAM: Cyclo(Ac-…)pa[…]-NH2; remark: listed apart in the source
[6] = target: S5-FAM: Cyclo(Ac-y…)pa[…]-NH2; remark: listed apart in the source
[7] = target: S3-FAM: Cyclo(Ac-y…)pa[…]-NH2; remark: listed apart in the source

With “Recombinant soluble trimeric H1 HA ectodomain of A/California/04/2009 (H1N1), fused to GCN4 trimeriz (domain or fragment)” the Kd [1] was 1.1 nM, the Kd [2] was 1 nM and the Kd [3] was 1.3 nM. For the same substance, the Kd [4] was 2.4 nM, the Kd [5] was 0.6 nM and the Kd [6] was 0.6 nM. For the same substance, the Kd [7] was 0.8 nM.
